B1: EGFP-EWSR1::FLI1 (natural protein, human, UniProt Q01844 1-264, looked up)
chain: MASTDYSTYSQAAAQQGYSAYTAQPTQGYAQTTQAYGQQSYGTYGQPTDVSYTQAQTTATYGQTAYATSYGQPPTGYTTPTAPQAYSQPVQGYGTGAYDTTTATVTTTQASYAAQSAYGTQPAYPAYGQQPAATAPTRPQDGNKPTETSQPQSSTGGYNQPSLGYGQSNYSYPQVPGSYPMQPVTAPPSYPPTSYSSTQPTSYDQSSYSQQNTYGQPSSYGQQSSYGQQSSYGQQPPTSYPPQTGSYSQAPSQYSQQSSSYGQQPSYDSVRRGAWGNNMNSGLNKSPPLGGAQTISKNTEQRPQPDPYQILGPTSSRLANPGSGQIQLWQFLLELLSDSANASCITWEGTNGEFKMTDPDEVARRWGERKSKPNMNYDKLSRALRYYYDKNIMTKVHGKRYAYKFDFHGIAQALQPHPTESSMYKYPSDISYMPSYHAHQQKVNFVPPHPSSMPVTSSSFFGAASQYWTSPTGGIYPNPNVPRHPNTHVPSHLGSYY
B2: EGFP-∆63EWSR1::FLI1 (domain or fragment, human, UniProt Q01844 64-264, looked up)
chain: TAYATSYGQPPTGYTTPTAPQAYSQPVQGYGTGAYDTTTATVTTTQASYAAQSAYGTQPAYPAYGQQPAATAPTRPQDGNKPTETSQPQSSTGGYNQPSLGYGQSNYSYPQVPGSYPMQPVTAPPSYPPTSYSSTQPTSYDQSSYSQQNTYGQPSSYGQQSSYGQQSSYGQQPPTSYPPQTGSYSQAPSQYSQQSSSYGQQPSYDSVRRGAWGNNMNSGLNKSPPLGGAQTISKNTEQRPQPDPYQILGPTSSRLANPGSGQIQLWQFLLELLSDSANASCITWEGTNGEFKMTDPDEVARRWGERKSKPNMNYDKLSRALRYYYDKNIMTKVHGKRYAYKFDFHGIAQALQPHPTESSMYKYPSDISYMPSYHAHQQKVNFVPPHPSSMPVTSSSFFGAASQYWTSPTGGIYPNPNVPRHPNTHVPSHLGSYY

Biological target: the molecule itself
Test: Number and Brightness

Row | Protein | stoichiometry N [molecules]
1 | B1 | 3 to 4
2 | B2 | 3 to 4

From publication PMC12263829 (Nature Communications, 2025)
